# Patent US6399344B1, “Isolated proteins having retinol dehydrogenase activity, and which associate with retinol binding receptors” (Ludwig Institute for Cancer Research, priority 1994, dated 2002)
# T1: p63 (Bos taurus, UniProt Q28175)
# T1 construct: RPE-membrane proteins were then solubilized in phosphate-buffered saline; from tissue; host or cells: bovine retinal pigment epithelium (RPE) membrane fraction, CHAPS-solubilized, gel-filtered, 125I-labelled
# T1 sequence (Q28175 2-533 limits assumed): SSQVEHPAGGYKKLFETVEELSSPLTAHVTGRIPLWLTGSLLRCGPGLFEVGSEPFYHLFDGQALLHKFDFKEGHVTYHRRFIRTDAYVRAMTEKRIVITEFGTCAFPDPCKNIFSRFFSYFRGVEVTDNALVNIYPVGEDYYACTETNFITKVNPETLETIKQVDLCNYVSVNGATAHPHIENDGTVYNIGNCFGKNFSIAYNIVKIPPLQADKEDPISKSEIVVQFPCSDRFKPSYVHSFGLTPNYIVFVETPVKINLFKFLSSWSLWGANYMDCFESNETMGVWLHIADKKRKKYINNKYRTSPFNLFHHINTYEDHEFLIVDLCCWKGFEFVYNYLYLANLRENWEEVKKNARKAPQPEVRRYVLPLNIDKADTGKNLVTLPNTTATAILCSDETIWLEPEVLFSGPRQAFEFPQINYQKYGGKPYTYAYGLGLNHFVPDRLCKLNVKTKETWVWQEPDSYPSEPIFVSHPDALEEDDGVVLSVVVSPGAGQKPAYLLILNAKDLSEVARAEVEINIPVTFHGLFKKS
# B1: protein encoded by SEQ ID NO: 35: murine liver membrane associated protein of about 34 kilodaltons with 9-cis, 11-cis and 13-cis retinol dehydrogenase activity (protein)
# chain: MWLPLLLGALLWAVLWLLRDRQSLPASDAFIFITGCDSGFGRLLALQLDQKGFQVLAGCLTPSGAEDLQQMASSRLHTTLLDITDPQNVQQVAKWVKTRVGETGLFGLVNNAGVAGIIGPTPWLTQDDFQRVLSVNTLGPIGVTLALLPLLQQARGRVVNITSVLGRIAANGGGYCVSKFGLEAFSDSLRRDMAPFGVQVSIVEPGFFRTPVTNLESLESTLKACWARLPPAIQAHYGEAFLDTYLRVQRRIMNLICDPELTKVTSCLEHALTARHPRTRYSPGWDAKLLWLPASYLPARVVDAVLTWILPRPAQSVS
# B2: p32: 32 kDa membrane associated bovine RPE protein that complexes with p63; stereo specific 11-cis-retinol dehydrogenase (SEQ ID NO: 10) (protein)
# chain: MWLPLLLGVLLWAALWLLRDRQCLPASDAFIFITGCDSGFGRLLALRLDQRGFRVLASCLTPSGAEDLQRVASSRLHTTLLDVTDPQSIRQAVKWVETHVGEAGLFGLVNNAGVAGIIGPTPWQTREDFQRVLNVNTLGPIGVTLALLPLLLQARGRVINITSVLGRLAANGGGYCVSKFGLEAFSDSLRRDVAPFGVRVSIVEPGFFRTPVTNLETLEDTLQACWARLPPATQALYGEAFLTKYLRVQQRIMNMICDPDLAKVSRCLEHALTARHPRTRYSPGWDAKLLWLPASYLPARLVDAVLAWVLPKPAQTVY
# What was measured:
# [1] = Retinol dehydrogenase activity in membranes of baculovirus-infected Sf9 cells, reversed phase HPLC; format: biochemical, murine
# Method: In order to generate a protein from a eukaryotic system, a 1.2 kilobase EcoRI fragment of the SEQ ID NO: 35 plasmid described supra was subcloned into a baculovirus expression vector, using known methods. Then, the vector was used to transfect Spodoptera frugiperda (“Sf9”) cells, again using known methods. Recombinant baculoviruses were then amplified by several rounds of amplification, and were then used in fresh Sf9 cells. A parallel set of experiments were also carried out, but using recombinant virus containing an unrelated gene, whose expression product had no retinol dehydrogenase activity.
# Expressed protein was then assessed for enzyme activity. In brief, membranes equivalent to 25 ug of total membrane protein from infected cells were incubated in phosphate buffered saline (PBS), containing 100 uM of 9-cis retinol, or all-trans retinol. Final volumes of incubated materials were 200 ul. Either cofactor NAD+ or cofactor NADP was also added, to a final concentration of 200 uM. The mixture was incubated for 20 minutes at 37° C., after which alkaline ethanol was added. The mixture was then extracted with 2.0 ml of n-hexane. The organic phase was then removed and dried under argon. Dried phases were dissolved in ethanol, and aliquots were analyzed by reversed phase HPLC, using a C18 column, and a mobile phase of acetonitrile/water (85:15 v/v). Elution was at 1.0 ml/min, with effluent being monitored at 350 nm.
# [2] = target: T1, p63; test: Immunoprecipitation of radiolabelled RPE-membrane proteins with mAb A52 / rabbit antisera to p63, SDS-PAGE; format: binding; conditions: solubilized bovine RPE membranes, immunoprecipitation with mAb A52 or rabbit antisera to p63
# Method: Bovine RPE-cells were isolated and membrane fractions were prepared as described in Bavik et al, J. Biol. Chem. 266:[…] (1991) incorporated by reference. RPE-membrane proteins were then solubilized in phosphate-buffered saline (PBS) (20 mM sodium phosphate, PH 7.2, containing 150 mM NaCl), containing 1% 3-[(3-cholamido-propyl) -dimethylammonio] -1-propane sulfonic acid (CHAPS) at 1 mg of total membrane protein/ml of buffer. Remaining material was removed by ultracentrifugation at 100,000×g for 1 hour. Next, 500 ul aliquots of the solubilized membranes were subjected to gel filtration on a Sepharose 6 column equilibrated in PBS containing 1% CHAPS. The column was operated at a flow rate of 0.2 ml/min and 500 ul fractions collected. Proteins eluted in fractions corresponding to globular proteins of Mr 150,000 to 400,000 were then radiolabelled with Na^125I using the well-known Chloramin T procedure. […]
# Aliquots of the radiolabelled proteins were then diluted in PBS containing 1% CHAPS and 1% bovine serum albumin and subsequently subjected to immunoprecipitation using the mAb A52 to p63 (5 ug per incubation) or using two polyclonal rabbit antisera to p63 (3 ul of serum per incubation) See Bavik et al., J. Biol. Chem. 267:23035-23042 (1992). Non-specific immunoprecipitation was monitored in parallel incubations using an unrelated mAb and preimmune rabbit serum. […]
# [3] = Retinol dehydrogenase activity of p32 in microsomal fractions of transfected COS-cells, HPLC; format: biochemical, bovine
# Method: Specifically, the EcoRI—insert of pλ321 was cloned into the EcoR1-digested eucaryotic expression vector pSG5. See Green et al., Nucl. Acid Res. 16:39 (1988). COS-cells were maintained in Dulbecco's minimal essential medium supplemented with 10% fetal bovine serum, 2mM glutamine and antibiotics. The cells were seeded into 60 mm petri dishes (4×10^5 cells per dish) and transfected with 5 ug of plasmid per dish using DEAE dextran. Control cells were transfected with equal amounts of the parental vector alone. After treatment with 10% DMSO for 2 minutes, the cells were incubated for 72-96 hours, and then harvested by scraping the dishes with a rubber policeman, and the cells thereafter collected by low speed centrifugation. The collected cell pellets were next resuspended in hypotonic buffer (10 mM Tris-HCl, pH 7.5 containing 1mM phenyl-methylsufonyl fluoride), put on ice for 20 minutes, and then homogenized using a Dounce homogenator. Unbroken cells and debris were removed by centrifugation (3000×g)for 15 minutes. Microsomes were subsequently collected by ultra-centrifugation at 100,000×g for 1 hour; membrane pellets were stored at −80° C. until further analyzed.
# Next, some of the enzymatic properties of p32 expressed in COS-cells were determined in a manner similar to that as described in the study of 11-cis-retinol dehydrogenase activity in microsomal fractions of RPE cells. See Saari et al., Anal. Biochem 213:[…] (1993).
# In particular, enzymatic activity of p32 was assayed by incubating the microsomal fractions from the aforementioned transfected cells, and from control cells lacking p32, with varying combinations of the different stereo isomeric substrates, i.e., 11-cis-retinol or all-trans-retinol, in the presence of either cofactor NAD+ or NADP.
# To assay for p32 activity in transfected cells, the final concentration of 11-cis-retinol and all-trans-retinol (obtained from Sigma Chemical Co.) in the incubations was reduced to 100 uM. Twenty ug of total membrane protein from COS-cells expressing p32 or from control cells were used in each incubation, and thereafter a 30 minute incubation at 37° C. in the presence or absence of NAD+ or NADP followed. Reaction mixtures were then extracted with n-hexane, and organic phases removed and dried under argon. The dried organic phases were then separately dissolved in ethanol and aliquots were analyzed on a normal phase silica HPLC column developed with n-hexane containing 4% dioxane at 1 ml per minute. See Saari et al. J. Biol. Chem. 257:13329-13333 (1982). Effluent was monitored at 330 nm. Under these conditions, 11-cis-retinaldehyde and 11-cis retinol eluted at 7 minutes and 22.5 minutes, respectively, and all-trans-retinaldehyde and all-trans retinol eluted at 8 minutes and 23 minutes, respectively.
# [4] = experiments not elaborated upon
coprecipitation with p63 (binding to p63) [2],Molecule,"oxidation of 9-cis retinol, efficiency relative to mock infected cells ([1]; 100 uM 9-cis retinol, 20 minutes at 37° C.)","9-cis retinaldehyde formation ([1]; 100 uM 9-cis retinol, cofactor NADP 200 uM)","11-cis RDH activity [1, 4]","13-cis RDH activity [1, 4]","11-cis-retinol dehydrogenase activity (formation of 11-cis-retinaldehyde) ([3]; 100 uM 11-cis-retinol, cofactor NAD+, 30 minute at 37° C.)","formation of all-trans retinaldehyde from all-trans retinol ([3]; 100 uM all-trans-retinol, 30 minute at 37° C.)",11-cis-retinol dehydrogenase activity ([3]; cofactor NADP),"9-cis retinol dehydrogenase activity ([3]; further experiments, no details)"
–,B1,8-10 times,Background levels,observed,13-cis RDH activity,–,–,–,–
coprecipitated,B2,–,–,–,–,active,no significant formation of all-trans retinaldehyde,not enzymatically-active,has 9-cis retinol dehydrogenase activity
